Holding throughout (assay): two-hybrid library CCmax;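 further: natural log of median RNA to DNA barcode read ratio; higher means stronger binding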
The target in one assay is T1, 4H347-AA.
T1 chain: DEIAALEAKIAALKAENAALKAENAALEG

Another assay concerns the target T2, 4H3493-AA.
T2 chain: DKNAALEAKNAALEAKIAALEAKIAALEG

Another assay deals with T3, 4H376-AA.
T3 chain: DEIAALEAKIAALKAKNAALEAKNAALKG
The following applies: mean of both orientations.

The target of another assay is T4, 4H406-AA.
T4 chain: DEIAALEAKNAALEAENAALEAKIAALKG
To be noted: mean of both orientations.

For the next assay, the target named is T5, 4H452-AA.
T5 chain: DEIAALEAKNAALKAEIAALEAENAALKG
To be noted: mean of both orientations.

In the next assay the target is T6, 4H56-AA.
T6 chain: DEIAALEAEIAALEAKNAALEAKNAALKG
To be noted: mean of both orientations.

The target in a further assay is T7, 4H688-AA.
T7 chain: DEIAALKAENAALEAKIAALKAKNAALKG
The following applies: mean of both orientations.

In a further assay the target is T8, 4H963-AA.
T8 chain: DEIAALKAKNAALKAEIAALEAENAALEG
The following applies: mean of both orientations.

The target in a further assay is T9, 4H_APH.
T9 chain: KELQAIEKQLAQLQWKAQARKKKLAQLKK
The following applies: mean of both orientations.

For another assay, the target named is T10, 4H_BCR.
T10 chain: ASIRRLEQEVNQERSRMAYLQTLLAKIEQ
The following applies: mean of both orientations.

The next assay concerns the target 4H_GCN4.
The target of another assay is GCN2_T. The following applies: mean of both orientations.

Like-named read-outs stand apart in the source and are kept apart here.

Data on two molecules can be found in article PMC10397247.

4H_GCN4, sequence (chain, as listed by the source): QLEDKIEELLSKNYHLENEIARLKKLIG

B1: 4H347-AA (peptide)
chain: DEIAALEAKIAALKAENAALKAENAALEG
Regarding B1, the interaction score in the assay with 4H347-AA is -0.315; with 4H3493-AA (mean of both orientations), -2.08; with 4H376-AA it was -1.06; with 4H406-AA, -1.21; in the assay with 4H452-AA it was -0.224; in the assay with 4H56-AA, -0.0342. Also, the interaction score with 4H688-AA is -0.941; with 4H963-AA it was -1.41; in the assay with 4H_APH it was -1.79; with 4H_BCR, -1.88; with 4H_GCN4 it was -2.04; in the assay with GCN2_T, -2.14.

B2: 4H3493-AA (peptide)
chain: DKNAALEAKNAALEAKIAALEAKIAALEG
As for B2, the interaction score in the assay with 4H3493-AA is 0.972; with 4H376-AA, -1.47; with 4H406-AA it was -1.82; in the assay with 4H688-AA, -1.63; with 4H963-AA, -1.58.
